Test results from patent US12269859B2, “Synthetic immune receptors and methods of use thereof” (Angeles Therapeutics, Inc., priority 2016, dated 2025).

Test system: target antigen-expressing cell line
Test: Jurkat NFAT-GFP assay, coculture with target cell lines expressing the respective target antigen (summary Table 10A)
Assay type: cell-based, human
Design: key: The signs +/−, +, 2+ etc. after the name of the cell lines indicate the relative degree of positivity on the Jurkat-NFAT-GFP assay as measured by the % GFP positive cells; +: relative degree of positivity on the Jurkat-NFAT-GFP assay as measured by the % GFP positive cells; 2+: relative degree of positivity on the Jurkat-NFAT-GFP assay as measured by the % GFP positive cells
How it was run: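 Read-out: % GFP+ cells by FACS. SIR-transduced, puromycin-selected Jurkat NFAT-GFP (IL-2 promoter reporter) cocultured ~4–18 h with target line, E:T ~1:2; parental cells as control; graded +/−, +, 2+ relative to parental.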

Molecule | NFAT-GFP ASSAY Positive Cell lines (coculture with L363 cells) | NFAT-GFP ASSAY Positive Cell lines (coculture with U266 cells)
060616-K04 (protein, Synthetic Immune Receptor (SIR)) MALPVTALLLPLALLLHAARPDIQMTQSPSSLSASVGDRVTITCKASQDVGIAVAWYQQKPGKVPKLLIYWASTRHTGVPDRFSGSGSGTDFTLTISSLQPEDVATYYCQQYSSYPYTFGQGTKVEIKLEGKPIPNPLLGLDSTGSGEDLKNVFPPEVAVFEPSKAEIAHTQKATLVCLATGFYPDHVELSWWVNGKEVHSGVCTDPQPLKEQPALNDSRYCLSSRLRVSATFWQNPRNHFRCQVQFYGLSENDEWTQDRAKPVTQIVSAEAWGRADCGITSASYHQGVLSATILYEILLGKATLYAVLVSALVLMAMVKRKDSRGRAKRSGSGATNFSLLKQAGDVEENPGPTSMDWIWRILFLVGAATGAHSFEEVQLVESGGGLVQPGGSLRLSCAASGFDFSRYWMSWVRQAPGKGLEWIGEINPDSSTINYAPSLKDKFIISRDNAKNSLYLQMNSLRAEDTAVYYCARPDGNYWYFDVWGQGTLVTVSSTREQKLISEEDGSGIQNPDPAVYQLRDSKSSDKSVCLFTDFDSQTNVSQSKDSDVYITDKCVLDMRSMDFKSNSAVAWSNKSDFACANAFNNSIIPEDTFFPSSDVPCDVKLVEKSFETDTNLNFQNLSVIGFRILLLKVAGFNLLMTLRLWSSRAKRSGSGVKQTLNFDLLKLAGDVESNPGPSRGHMTEYKPTVRLATRDDVPRAVRTLAAAFADYPATRHTVDPDRHIERVTELQELFLTRVGLDIGKVWVADDGAAVAVWTTPESVEAGAVFAEIGPRMAELSGSRLAAQQQMEGLLAPHRPKEPAWFLATVGVSPDHQGKGLGSAVVLPGVEAAERAGVPAFLETSAPRNLPFYERLGFTVTADVEVPEGPRTWCMTRKPGA | L363 (2+) | –
041416-P02 (protein, Polynucleotide encoding a Synthetic Immune Receptor (SIR)) MALPVTALLLPLALLLHAARPDIVMTQSQKSMSTSVGDRVSITCKASQDVITGVAWYQQKPGQSPKLLIYSASYRYTGVPDRFTGSGSGTDFTFTISNVQAEDLAVYYCQQHYSTPLTFGAGTKLELKLEGKPIPNPLLGLDSTGSGEDLKNVFPPEVAVFEPSKAEIAHTQKATLVCLATGFYPDHVELSWWVNGKEVHSGVCTDPQPLKEQPALNDSRYCLSSRLRVSATFWQNPRNHFRCQVQFYGLSENDEWTQDRAKPVTQIVSAEAWGRADCGITSASYHQGVLSATILYEILLGKATLYAVLVSALVLMAMVKRKDSRGRAKRSGSGATNFSLLKQAGDVEENPGPTSMDWIWRILFLVGAATGAHSFEQVQLQQPGAELVRPGASVKLSCKASGYSFTTYWMNWVKQRPGQGLEWIGMIHPSDSETRLNQKFKDKATLTVDKSSSTAYMQLSSPTSEDSAVYYCARSTMIATRAMDYWGQGTSVTVSSTREQKLISEEDGSGTPFPSLAPPIMLLVDGKQQMVVVCLVLDVAPPGLDSPIWFSAGNGSALDAFTYGPSPATDGTWTNLAHLSLPSEELASWEPLVCHTGPGAEGHSRSTQPMHLSGEASTARTCPQEPLRGTPGGALWLGVLRLLLFKLLLFDLLLTCSCLCDPAGPLPSPATTTRLRALGSHRLHPATETGGREATSSPRPQPRDRRWGDTPPGRKPGSPVRAKRSGSGVKQTLNFDLLKLAGDVESNPGPSRGHMTEYKPTVRLATRDDVPRAVRTLAAAFADYPATRHTVDPDRHIERVTELQELFLTRVGLDIGKVWVADDGAAVAVWTTPESVEAGAVFAEIGPRMAELSGSRLAAQQQMEGLLAPHRPKEPAWFLATVGVSPDHQGKGLGSAVVLPGVEAAERAGVPAFLETSAPRNLPFYERLGFTVTADVEVPEGPRTWCMTRKPGA | (+/−) | U266 (+/−), L363
090116-L01 (protein, Synthetic Immune Receptor (SIR)) MALPVTALLLPLALLLHAARPLEGKPIPNPLLGLDSTGSGEDLKNVFPPEVAVFEPSKAEIAHTQKATLVCLATGFYPDHVELSWWVNGKEVHSGVCTDPQPLKEQPALNDSRYCLSSRLRVSATFWQNPRNHFRCQVQFYGLSENDEWTQDRAKPVTQIVSAEAWGRADCGITSASYHQGVLSATILYEILLGKATLYAVLVSALVLMAMVKRKDSRGRAKRSGSGATNFSLLKQAGDVEENPGPTSMALPVTALLLPLALLLHAARPDIVMTQSQKSMSTSVGDRVSITCKASQDVITGVAWYQQKPGQSPKLLIYSASYRYTGVPDRFTGSGSGTDFTFTISNVQAEDLAVYYCQQHYSTPLTFGAGTKLELKGGGGSGGGGSGGGGSQVQLQQPGAELVRPGASVKLSCKASGYSFTTYWMNWVKQRPGQGLEWIGMIHPSDSETRLNQKFKDKATLTVDKSSSTAYMQLSSPTSEDSAVYYCARSTMIATRAMDYWGQGTSVTVSSTREQKLISEEDGSGIQNPDPAVYQLRDSKSSDKSVCLFTDFDSQTNVSQSKDSDVYITDKCVLDMRSMDFKSNSAVAWSNKSDFACANAFNNSIIPEDTFFPSSDVPCDVKLVEKSFETDTNLNFQNLSVIGFRILLLKVAGFNLLMTLRLWSSRAKRSGSGVKQTLNFDLLKLAGDVESNPGPSRGHMTEYKPTVRLATRDDVPRAVRTLAAAFADYPATRHTVDPDRHIERVTELQELFLTRVGLDIGKVWVADDGAAVAVWTTPESVEAGAVFAEIGPRMAELSGSRLAAQQQMEGLLAPHRPKEPAWFLATVGVSPDHQGKGLGSAVVLPGVEAAERAGVPAFLETSAPRNLPFYERLGFTVTADVEVPEGPRTWCMTRKPGA | (+) | U266 (+/−), L363
091216-L03 (protein, Synthetic Immune Receptor (SIR)) MALPVTALLLPLALLLHAARPLEGKPIPNPLLGLDSTGSGEDLKNVFPPEVAVFEPSKAEIAHTQKATLVCLATGFYPDHVELSWWVNGKEVHSGVCTDPQPLKEQPALNDSRYCLSSRLRVSATFWQNPRNHFRCQVQFYGLSENDEWTQDRAKPVTQIVSAEAWGRADCGITSASYHQGVLSATILYEILLGKATLYAVLVSALVLMAMVKRKDSRGRAKRSGSGATNFSLLKQAGDVEENPGPTSTMALPVTALLLPLALLLHAARPDIQMTQSPSSLSASVGDRVTITCKASQDVGIAVAWYQQKPGKVPKLLIYWASTRHTGVPDRFSGSGSGTDFTLTISSLQPEDVATYYCQQYSSYPYTFGQGTKVEIKGGGGSGGGGSGGGGSEVQLVESGGGLVQPGGSLRLSCAASGFDFSRYWMSWVRQAPGKGLEWIGEINPDSSTINYAPSLKDKFIISRDNAKNSLYLQMNSLRAEDTAVYYCARPDGNYWYFDVWGQGTLVTVSSTREQKLISEEDGSGIQNPDPAVYQLRDSKSSDKSVCLFTDFDSQTNVSQSKDSDVYITDKCVLDMRSMDFKSNSAVAWSNKSDFACANAFNNSIIPEDTFFPSSDVPCDVKLVEKSFETDTNLNFQNLSVIGFRILLLKVAGFNLLMTLRLWSSRAKRSGSGVKQTLNFDLLKLAGDVESNPGPSRGHMTEYKPTVRLATRDDVPRAVRTLAAAFADYPATRHTVDPDRHIERVTELQELFLTRVGLDIGKVWVADDGAAVAVWTTPESVEAGAVFAEIGPRMAELSGSRLAAQQQMEGLLAPHRPKEPAWFLATVGVSPDHQGKGLGSAVVLPGVEAAERAGVPAFLETSAPRNLPFYERLGFTVTADVEVPEGPRTWCMTRKPGA | U266 (+), L363 (+) | U266 (+), L363 (+)
110116-L01 (protein, Synthetic Immune Receptor (SIR)) MALPVTALLLPLALLLHAARPLEQKLISEEDLGSGDRPDPAVYQLRDSKSSDKSVCLFTDFDSQTNVSQSKDSDVYITDKCVLDMRSMDFKSNSAVAWSNKSDFACANAFNNSIIPEDTFFPSPESSCDVKLVEKSFETDTNLNFQNLSVIGFRILLLKVAGFNLLMTLRLWSSSSRAKRSGSGVKQTLNFDLLKLAGDVESNPGPTSMALPVTALLLPLALLLHAARPDIVMTQSQKSMSTSVGDRVSITCKASQDVITGVAWYQQKPGQSPKLLIYSASYRYTGVPDRFTGSGSGTDFTFTISNVQAEDLAVYYCQQHYSTPLTFGAGTKLELKGGGGSGGGGSGGGGSQVQLQQPGAELVRPGASVKLSCKASGYSFTTYWMNWVKQRPGQGLEWIGMIHPSDSETRLNQKFKDKATLTVDKSSSTAYMQLSSPTSEDSAVYYCARSTMIATRAMDYWGQGTSVTVSSTRGKPIPNPLLGLDSTGSGEDLKNVFPPEVAVFEPSEAEISHTQKATLVCLATGFYPDHVELSWWVNGKEVHSGVCTDPQPLKEQPALNDSRYCLSSRLRVSATFWQNPRNHFRCQVQFYGLSENDEWTQDRAKPVTQIVSAEAWGRADCGFTSESYQQGVLSATILYEILLGKATLYAVLVSALVLMAMVKRKDSRGRAKRSGSGATNFSLLKQAGDVEENPGPSRGHMTEYKPTVRLATRDDVPRAVRTLAAAFADYPATRHTVDPDRHIERVTELQELFLTRVGLDIGKVWVADDGAAVAVWTTPESVEAGAVFAEIGPRMAELSGSRLAAQQQMEGLLAPHRPKEPAWFLATVGVSPDHQGKGLGSAVVLPGVEAAERAGVPAFLETSAPRNLPFYERLGFTVTADVEVPEGPRTWCMTRKPGA | U266 (+), L363 (+) | U266 (+), L363 (+)
012517-A12 (protein) MALPVTALLLPLALLLHAARPLEGKPIPNPLLGLDSTGSGEDLKNVFPPEVAVFEPSKAEIAHTQKATLVCLATGFYPDHVELSWWVNGKEVHSGVCTDPQPLKEQPALNDSRYCLSSRLRVSATFWQNPRNHFRCQVQFYGLSENDEWTQDRAKPVTQIVSAEAWGRADCGITSASYHQGVLSATILYEILLGKATLYAVLVSALVLMAMVKRKDSRGRAKRSGSGATNFSLLKQAGDVEENPGPTSMALPVTALLLPLALLLHAARPDIQMTQSPSSLSASVGDRVTITCKASQDVSTAVAWYQQKPGKAPKLLIYSASYRYTGVPDRFTGSGSGTDFTLTISSLQPEDFATYYCQQHYSTPPYTFGGGTKVEIKRGGGGSGGGGSGGGGSQVQLVQSGAEVKKPGASVKVSCKASGYAFSSSWMNWVRQAPGQGLEWIGRIYPGDGDTKYNGKFKGKATLTADKSTSTAYMELSSLRSEDTAVYYCARSTMIATGAMDYWGQGTLVTVSSTREQKLISEEDGSGIQNPDPAVYQLRDSKSSDKSVCLFTDFDSQTNVSQSKDSDVYITDKCVLDMRSMDFKSNSAVAWSNKSDFACANAFNNSIIPEDTFFPSSDVPCDVKLVEKSFETDTNLNFQNLSVIGFRILLLKVAGFNLLMTLRLWSSRAKRSGSGVKQTLNFDLLKLAGDVESNPGPSRGHMTEYKPTVRLATRDDVPRAVRTLAAAFADYPATRHTVDPDRHIERVTELQELFLTRVGLDIGKVWVADDGAAVAVWTTPESVEAGAVFAEIGPRMAELSGSRLAAQQQMEGLLAPHRPKEPAWFLATVGVSPDHQGKGLGSAVVLPGVEAAERAGVPAFLETSAPRNLPFYERLGFTVTADVEVPEGPRTWCMTRKPGA | (+) | U266 (+/−), L363
